Data published in patent US12427210B2, “Compounds comprising a fibroblast activation protein ligand and use thereof” (priority 2019, dated 2025).

Assays:
[1] = biological target: T1, DPP3 (Homo sapiens (Human)) (UniProt Q9NY33)
T1 sequence: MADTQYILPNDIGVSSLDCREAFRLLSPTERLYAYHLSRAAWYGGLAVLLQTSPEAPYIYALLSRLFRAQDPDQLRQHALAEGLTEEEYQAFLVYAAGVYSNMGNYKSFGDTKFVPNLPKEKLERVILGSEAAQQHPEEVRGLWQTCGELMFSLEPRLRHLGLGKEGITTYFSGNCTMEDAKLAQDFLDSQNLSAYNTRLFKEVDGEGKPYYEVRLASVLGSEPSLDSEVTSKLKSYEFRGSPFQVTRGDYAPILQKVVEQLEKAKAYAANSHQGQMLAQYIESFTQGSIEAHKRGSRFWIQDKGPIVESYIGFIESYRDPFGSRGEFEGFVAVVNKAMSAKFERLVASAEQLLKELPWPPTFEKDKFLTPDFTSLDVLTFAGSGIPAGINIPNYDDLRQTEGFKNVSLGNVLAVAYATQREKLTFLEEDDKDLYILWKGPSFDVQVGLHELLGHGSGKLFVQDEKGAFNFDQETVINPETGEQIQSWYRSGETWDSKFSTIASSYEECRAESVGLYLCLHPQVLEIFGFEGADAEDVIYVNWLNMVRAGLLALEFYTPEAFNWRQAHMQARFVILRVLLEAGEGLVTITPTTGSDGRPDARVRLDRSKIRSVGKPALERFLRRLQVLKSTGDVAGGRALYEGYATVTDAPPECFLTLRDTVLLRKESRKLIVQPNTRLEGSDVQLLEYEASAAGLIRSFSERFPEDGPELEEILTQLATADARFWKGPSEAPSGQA

[2] = biological target: Recombinant human FAP (R&D systems, #3715-SE) (human)
Sequence of Recombinant human FAP (R&D systems, #3715-SE) (human) (chain, as listed by the source limits assumed): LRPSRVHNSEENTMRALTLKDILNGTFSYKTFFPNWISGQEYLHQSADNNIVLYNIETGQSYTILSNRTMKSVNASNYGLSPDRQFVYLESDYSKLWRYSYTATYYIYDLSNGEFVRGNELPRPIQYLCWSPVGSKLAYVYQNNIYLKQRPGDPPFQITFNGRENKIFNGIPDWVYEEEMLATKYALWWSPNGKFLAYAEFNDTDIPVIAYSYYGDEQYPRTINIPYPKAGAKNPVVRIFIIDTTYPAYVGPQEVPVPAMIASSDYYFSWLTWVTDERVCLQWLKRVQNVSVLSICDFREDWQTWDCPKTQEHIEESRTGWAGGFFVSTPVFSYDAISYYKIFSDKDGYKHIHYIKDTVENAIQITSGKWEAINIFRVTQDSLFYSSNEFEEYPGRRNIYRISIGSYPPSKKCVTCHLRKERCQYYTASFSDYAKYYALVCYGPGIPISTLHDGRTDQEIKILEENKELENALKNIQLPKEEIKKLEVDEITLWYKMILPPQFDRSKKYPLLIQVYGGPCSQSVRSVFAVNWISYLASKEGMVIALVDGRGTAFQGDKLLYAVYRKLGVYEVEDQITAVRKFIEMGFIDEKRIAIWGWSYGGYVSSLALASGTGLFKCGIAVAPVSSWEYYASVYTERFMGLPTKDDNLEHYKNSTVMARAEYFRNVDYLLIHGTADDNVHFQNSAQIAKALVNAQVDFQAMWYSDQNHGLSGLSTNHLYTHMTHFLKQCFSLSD

Substance	Percentage inhibition (%) (% inhibition at 10 µM) [1]	pIC50 Category (Activity) [2] [pIC50]
Hex-[Cys(tMeBn(DOTA-AET))-Pro-Pro-Thr-Gln-Phe-Cys]-OH (3BP-3554) (peptide)	-1	
Hex-[Cys(tMeBn(DOTA-PP))-Pro-Pro-Thr-Gln-Phe-Cys]-Asp-NH2 (3BP-3407) (peptide)		> 8
